Reference: a protein production outcome set (Wang et al. 2014)

Assay: label from the status in PepcDB records

Row | Sequence | protein production
1 | MSLSKILIAGCGDLGLELARRLTAQGHEVTGLRRSAQPMPAGVQTLIADVTRPDTLASIVHLRPEILVYCVAASEYSDEHYRLSYVEGLRNTLSALEGAPLQHVFFVSSTGVYGQEVEEWLDEDTPPIAKDFSGKRMLEAEALLAAYSSTILRFSGIYGPGRLRMIRQAQTPEQWPARNAWTNRIHRDDGAAFIAYLIQQRSHAVPERLYIVTDNQPLPVHDLLRWLADRQGIAYPAGATPPVQGNKKLSNARLLASGYQLIYPDYVSGYGALLAAMREGHHHHHH | not failed
2 | MKEVIHSTLAPKAIGPYSQAIATNDLVFVSGQLGIDVSTGEFKGADIHSQTTQSMENIKAILKEAGLGMDSVVKTTILLKSLDDFAVVNGIYGSYFTEPYPARATFQVAKLPKDALVEIEAIAIK | failed
3 | MPPGTTLQGGKYRLEQVLGQGGFGITYLGSQTQLGARVAIKELFPSGSTRQSGQYVLPPAGTDPAGWAQAKQDFTAEGRTVARFNHPDIVRVMDLFEENGTAYLVMEFLEGQTLGSAIEKRGPLPPDEVVNIAKRVLGALSVVHSAGMLHRDIKPDNIYLDKAGRTVLIDFGSARTFAAGQTVSHTRLVTPGYAPLEQYSGSAKFGPYTDIYALGATLYHALTGHPPTPATDRTMGTPLAPLPPNTPPALREAIERSLAIKINERPQSTQEVLALLNQVSVAPQSAPAAPAPRPTPPQRNQTFPPAPQPTPQRQPQRPPQPVPQPPAQRRRGPGCGCLFPLLLLGGLALYGMNVLGPLLSPSQTETTTTSEQTQPEPPAQTPTTPTEDPTIPQAPGTTDSGQDWQSGDSIDLGLPGSNGETPAQTDNTATPETTTQGNAGTETNPTTTPETNTSTAPTSGELVVTAPNVTLRSAADAAANSLGTLAAGSTVQILQTQDGWYEVQTTSGQRGWVGTDAALPPVSAEALKALQTAAGQGGDVQLSPGVYRLQEPLVLSQDAHLTGAGRDRTWITSAAGNAVLTTRGNVSLQGVTVGWTGQTPGGALLAEGGTVTLRDARLTGGVRDETRNESGSGLQLSQGAQGDVQGSDLVGNAYGASVSDTAQLKLKDSTLSDNSLGGAIFLDSSGGEVRGSTLERNGGDGLTVRHTAAPVIVDSELRDNGERGLSVEGQAKPTVKRVTASGNTLQGIGVQDDAQPQLSNNKLTGNGQEGLTYADRAGGRASENELSGNQVGIAVQGSAAPELRTNIIRDSRDAGLSYAGQAGGTARGNTITGSAKPGISLWGEAQPTLSSNVIQGGAQSGIVFAEHAGGTLDSNEVLGNALSGLVVRDTAAPEVRGNTFQDNGKAAMVYEGEAGGRVSGNTCQGNGSDVIELHLTSVLAGPDLSGASCAVQTQGNW | failed
4 | MTLHEHTDEETAEHNLPSKSSGSTRRLALVAVVNFFGFVIELAGGLLFGSVALISDALHMLFDMLAYAMAFGASYTAERFEGGEAWSYGLHRLEPVAAFLNGVLLLPMVGYIVWESYQRFLEPVAINPELTLIIATGGLLVNIGSVYVLQGGEMSLNERGAFYHLLGDAGGSVAVIVSTAAVAVFDLPIADPVAAVLIGLLVLASAGNVLRESTSILLERSPVSSEELRDELTTLDGVDQIEDLHVWQVCSQLTVATVRLTDTSTTLEEQRRIQSRVHDYLTNRGIDHATVELVGRTDPDTDPVGTTNHSH | failed
5 | MSLKIAVLDDYQDAVRKLDCFNLLQDHEVKVFNNTVKGVGQLAARVADVEALVLIRERTRVTRQLLDRLPKLKIISQTGRVSRDAGGHIDLDACTDKGVVVLEGKGSPVAPAELTWALVMAAQRRIPQYVASLKHGAWQQSGLKSTTMPPNFGIGRVLKGQTLGIFGYGKIGQLVAGYGRAFGMNVLVWGRENSKERARADGFAVAESKEALFEQSDVLSVHLRLNDETRSIITVADLTRMKPTALFVNTSRAELVEENGLVTALNRGRPGMAAIDVFETEPILQGHTLLRMENCICTPHIGYVERESYEMYFGIAFQNILDVLQGNVDSVANPTALAPALIRAEGHHHHHH | not failed
6 | MLKGKVALVTGASRGIGRAIAKRLANDGALVAIHYGNRKEEAEETVYEIQSNGGSAFSIGANLESLHGVEALYSSLDNELQNRTGSTKFDILINNAGIGPGAFIEETTEQFFDRMVSVNAKAPFFIIQQALSRLRDNSRIINISSAATRISLPDFIAYSMTKGAINTMTFTLAKQLGARGITVNAILPGFVKTDMNAELLSDPMMKQYATTISAFNRLGEVEDIADTAAFLASPDSRWVTGQLIDVSGGSCL | not failed
7 | MYYKQLDSLVFTDGESIAKARLASMTDMWFSSDLHLGHKFVASMRGFDDPDEHDEVILSNFENTIGPDDVLWILGDLSSGAHRAEERALGLIAERLGGVVKHLVPGNHDSCHPMYRHAYKRQRRFLEVFDSVQAFQRMKWDDEDVYLSHFPRPGQDHPGMESRFDDLRLRVPLLIHGHLHSQFPMTGPGQVDVGVEAWGLKPAPRELVQLKLWESLSEKILEHHHHHH | failed
